Blank lines part the entries; values can stand above or below the binder they belong to.
Tests used:
[1] = biological target: KEAP1 (wild-type full-length), His-tagged (human) (UniProt Q14145); assay: AlphaScreen; 19.2 nM FLAG-NRF2, 150 nM His-KEAP1; wild type set to 100%
[2] = biological target: KEAP1 (wild-type full-length), His-tagged (human) (UniProt Q14145); assay: AlphaScreen; 38.4 nM FLAG-NRF2, 150 nM His-KEAP1; wild type set to 100%
[3] = biological target: KEAP1 (wild-type full-length), His-tagged (human) (UniProt Q14145); assay: AlphaScreen; 9.6 nM FLAG-NRF2, 150 nM His-KEAP1; Rep 2; control for I28V
[4] = biological target: KEAP1 (wild-type full-length), His-tagged (human) (UniProt Q14145); assay: AlphaScreen; 19.2 nM FLAG-NRF2, 150 nM His-KEAP1; Rep 1; control for I28V
[5] = biological target: KEAP1 (wild-type full-length), His-tagged (human) (UniProt Q14145); assay: AlphaScreen; 19.2 nM FLAG-NRF2, 150 nM His-KEAP1; Rep 2; control for I28V
[6] = biological target: KEAP1 (wild-type full-length), His-tagged (human) (UniProt Q14145); assay: AlphaScreen; 76.8 nM FLAG-NRF2, 150 nM His-KEAP1; Rep 3; control for I86V
[7] = biological target: KEAP1 (wild-type full-length), His-tagged (human) (UniProt Q14145); assay: AlphaScreen; 307.2 nM FLAG-NRF2, 150 nM His-KEAP1; Rep 2; control for I28V
[8] = biological target: KEAP1 (wild-type full-length), His-tagged (human) (UniProt Q14145); assay: AlphaScreen; 153.6 nM FLAG-NRF2, 150 nM His-KEAP1; Rep 3; control for I86V
[9] = biological target: KEAP1 (wild-type full-length), His-tagged (human) (UniProt Q14145); assay: AlphaScreen; 614.4 nM FLAG-NRF2, 150 nM His-KEAP1; Rep 1; control for I86V
[10] = biological target: KEAP1 (wild-type full-length), His-tagged (human) (UniProt Q14145); assay: AlphaScreen; 2.4 nM FLAG-NRF2, 150 nM His-KEAP1; signal against NRF2 only; control for I86V
[11] = biological target: KEAP1 (wild-type full-length), His-tagged (human) (UniProt Q14145); assay: AlphaScreen; 9.6 nM FLAG-NRF2, 150 nM His-KEAP1; signal against NRF2 only; control for I86V
[12] = biological target: KEAP1 (wild-type full-length), His-tagged (human) (UniProt Q14145); assay: AlphaScreen; 153.6 nM FLAG-NRF2, 150 nM His-KEAP1; signal against NRF2 only; control for I86V
[13] = biological target: KEAP1 (wild-type full-length), His-tagged (human) (UniProt Q14145); assay: AlphaScreen; 1228.8 nM FLAG-NRF2, 150 nM His-KEAP1; signal against NRF2 only; control for I28V
[14] = biological target: KEAP1 (wild-type full-length), His-tagged (human) (UniProt Q14145); assay: AlphaScreen; FLAG-NRF2 wt isoform 1 19.2 nM, His-KEAP1 150 nM; Rep 2; positive control for I86V
[15] = biological target: KEAP1 (wild-type full-length), His-tagged (human) (UniProt Q14145); assay: AlphaScreen; FLAG-NRF2 wt isoform 1 38.4 nM, His-KEAP1 150 nM; Rep 1; positive control for Q75R
[16] = biological target: KEAP1 (wild-type full-length), His-tagged (human) (UniProt Q14145); assay: AlphaScreen; FLAG-NRF2 wt isoform 1 1228.8 nM, His-KEAP1 150 nM; Rep 1; positive control for Q75R
[17] = biological target: KEAP1 (wild-type full-length), His-tagged (human) (UniProt Q14145); assay: AlphaScreen; FLAG-NRF2 wt isoform 1 19.2 nM, His-KEAP1 150 nM; Repeat 1; positive control for Q75R
[18] = biological target: KEAP1 (wild-type full-length), His-tagged (human) (UniProt Q14145); assay: AlphaScreen; FLAG-NRF2 wt isoform 1 38.4 nM, His-KEAP1 150 nM; Repeat 2; positive control for Q75R
[19] = biological target: KEAP1 (wild-type full-length), His-tagged (human) (UniProt Q14145); assay: AlphaScreen; FLAG-NRF2 I86V 307.2 nM, His-KEAP1 150 nM; Rep 3
[20] = biological target: KEAP1 (wild-type full-length), His-tagged (human) (UniProt Q14145); assay: AlphaScreen; FLAG-NRF2 I86V 1228.8 nM, His-KEAP1 150 nM; Rep 3
[21] = biological target: KEAP1 (wild-type full-length), His-tagged (human) (UniProt Q14145); assay: AlphaScreen; NRF2 I86V 38.4 nM, KEAP1 150 nM; signal against NRF2-only control
[22] = biological target: KEAP1 (wild-type full-length), His-tagged (human) (UniProt Q14145); assay: AlphaScreen; NRF2 I86V 1228.8 nM, KEAP1 150 nM; signal against NRF2-only control
[23] = biological target: KEAP1 (wild-type full-length), His-tagged (human) (UniProt Q14145); assay: AlphaScreen; 4.8 nM FLAG-NRF2, 150 nM His-KEAP1; Rep 1
[24] = biological target: KEAP1 (wild-type full-length), His-tagged (human) (UniProt Q14145); assay: AlphaScreen; 76.8 nM FLAG-NRF2, 150 nM His-KEAP1; Rep 1
[25] = biological target: KEAP1 (wild-type full-length), His-tagged (human) (UniProt Q14145); assay: AlphaScreen; average of three conditions; against wild-type NRF2 isoform 1
[26] = biological target: KEAP1 (wild-type full-length), His-tagged (human) (UniProt Q14145); assay: AlphaScreen; 38.4 nM FLAG-NRF2, 150 nM His-KEAP1; Repeat 2 (same value as in Table 27)
[27] = biological target: KEAP1 (wild-type full-length), His-tagged (human) (UniProt Q14145); assay: AlphaScreen; NRF2 Q75R 19.2 nM, KEAP1 150 nM; relative to wild-type NRF2 isoform 1 (100 %)

Chain of KEAP1 (wild-type full-length), His-tagged (human) (Q14145 2-624 limits assumed): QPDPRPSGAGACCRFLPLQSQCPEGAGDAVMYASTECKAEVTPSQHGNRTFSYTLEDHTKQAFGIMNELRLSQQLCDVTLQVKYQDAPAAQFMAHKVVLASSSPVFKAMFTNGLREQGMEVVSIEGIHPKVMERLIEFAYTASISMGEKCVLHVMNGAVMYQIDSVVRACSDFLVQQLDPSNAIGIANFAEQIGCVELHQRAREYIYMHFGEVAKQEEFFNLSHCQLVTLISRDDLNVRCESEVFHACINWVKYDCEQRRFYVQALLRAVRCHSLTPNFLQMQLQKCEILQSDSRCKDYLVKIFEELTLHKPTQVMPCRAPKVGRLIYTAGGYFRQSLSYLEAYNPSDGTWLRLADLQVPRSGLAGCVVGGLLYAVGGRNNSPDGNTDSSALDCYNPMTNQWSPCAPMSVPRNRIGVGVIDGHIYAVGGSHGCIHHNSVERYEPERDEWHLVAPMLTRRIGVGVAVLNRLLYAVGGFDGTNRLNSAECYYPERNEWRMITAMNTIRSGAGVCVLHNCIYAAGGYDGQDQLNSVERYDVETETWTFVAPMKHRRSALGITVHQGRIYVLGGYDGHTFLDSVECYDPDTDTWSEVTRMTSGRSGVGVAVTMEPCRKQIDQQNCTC

B2: NRF2 isoform 1 (I86V full-length), FLAG-tagged (protein)
chain: MMDLELPPPGLPSQQDMDLIDILWRQDIDLGVSREVFDFSQRRKEYELEKQKKLEKERQEQLQKEQEKAFFAQLQLDEETGEFLPVQPAQHIQSETSGSANYSQVAHIPKSDALYFDDCMQLLAQTFPFVDDNEVSSATFQSLVPDIPGHIESPVFIATNQAQSPETSVAQVAPVDLDGMQQDIEQVWEELLSIPELQCLNIENDKLVETTMVPSPEAKLTEVDNYHFYSSIPSMEKEVGNCSPHFLNAFEDSFSSILSTEDPNQLTVNSLNSDATVNTDFGDEFYSAFIAEPSISNSMPSPATLSHSLSELLNGPIDVSDLSLCKAFNQNHPESTAEFNDSDSGISLNTSPSVASPEHSVESSSYGDTLLGLSDSEVEELDSAPGSVKQNGPKTPVHSSGDMVQPLSPSQGQSTHVHDAQCENTPEKELPVSPGHRKTPFTKDKHSSRLEAHLTRDELRAKALHIPFPVEKIINLPVVDFNEMMSKEQFNEAQLALIRDIRRRGKNKVAAQNCRKRKLENIVELEQDLDHLKDEKEKLLKEKGENDKSLHLLKKQLSTLYLEVFSMLRDEDGKPYSPSEYSLQQTRDGNVFLVPKSKKPDVKKN
A-counts (NRF2 plus KEAP1) [19]: 2140 A-counts
A-counts (NRF2 plus KEAP1) [20]: 1620 A-counts
S/N [21]: 2.9
S/N [22]: 0.9

B3: NRF2 isoform 1 (I28V full-length), FLAG-tagged (protein)
chain: MMDLELPPPGLPSQQDMDLIDILWRQDVDLGVSREVFDFSQRRKEYELEKQKKLEKERQEQLQKEQEKAFFAQLQLDEETGEFLPIQPAQHIQSETSGSANYSQVAHIPKSDALYFDDCMQLLAQTFPFVDDNEVSSATFQSLVPDIPGHIESPVFIATNQAQSPETSVAQVAPVDLDGMQQDIEQVWEELLSIPELQCLNIENDKLVETTMVPSPEAKLTEVDNYHFYSSIPSMEKEVGNCSPHFLNAFEDSFSSILSTEDPNQLTVNSLNSDATVNTDFGDEFYSAFIAEPSISNSMPSPATLSHSLSELLNGPIDVSDLSLCKAFNQNHPESTAEFNDSDSGISLNTSPSVASPEHSVESSSYGDTLLGLSDSEVEELDSAPGSVKQNGPKTPVHSSGDMVQPLSPSQGQSTHVHDAQCENTPEKELPVSPGHRKTPFTKDKHSSRLEAHLTRDELRAKALHIPFPVEKIINLPVVDFNEMMSKEQFNEAQLALIRDIRRRGKNKVAAQNCRKRKLENIVELEQDLDHLKDEKEKLLKEKGENDKSLHLLKKQLSTLYLEVFSMLRDEDGKPYSPSEYSLQQTRDGNVFLVPKSKKPDVKKN
A-counts [23]: 1120 A-counts
A-counts [24]: 1560 A-counts
Reported Value (reduction in binding) [25]: 30.2%
A-counts [26]: 1680 A-counts

Results, then the binder that gave them:

Binding Percentage (%) [1]: 100%
Binding Percentage (%) [2]: 100%
A-counts [3]: 1640 A-counts
A-counts [4]: 1980 A-counts
A-counts [5]: 2000 A-counts
A-counts [6]: 2880 A-counts
A-counts [7]: 1780 A-counts
A-counts [8]: 2990 A-counts
A-counts [9]: 2660 A-counts
S/N [10]: 1.7
S/N [11]: 3.6
S/N [12]: 2
S/N [13]: 1
A-counts (NRF2 plus KEAP1) [14]: 3270 A-counts
A-counts (NRF2 plus KEAP1) [15]: 1480 A-counts
A-counts (NRF2 plus KEAP1) [16]: 1490 A-counts
A-counts (NRF2 plus KEAP1) [17]: 1360 A-counts
A-counts (NRF2 plus KEAP1) [18]: 1450 A-counts
B1: NRF2 isoform 1 (wild-type full-length), FLAG-tagged (protein)
chain: MMDLELPPPGLPSQQDMDLIDILWRQDIDLGVSREVFDFSQRRKEYELEKQKKLEKERQEQLQKEQEKAFFAQLQLDEETGEFLPIQPAQHIQSETSGSANYSQVAHIPKSDALYFDDCMQLLAQTFPFVDDNEVSSATFQSLVPDIPGHIESPVFIATNQAQSPETSVAQVAPVDLDGMQQDIEQVWEELLSIPELQCLNIENDKLVETTMVPSPEAKLTEVDNYHFYSSIPSMEKEVGNCSPHFLNAFEDSFSSILSTEDPNQLTVNSLNSDATVNTDFGDEFYSAFIAEPSISNSMPSPATLSHSLSELLNGPIDVSDLSLCKAFNQNHPESTAEFNDSDSGISLNTSPSVASPEHSVESSSYGDTLLGLSDSEVEELDSAPGSVKQNGPKTPVHSSGDMVQPLSPSQGQSTHVHDAQCENTPEKELPVSPGHRKTPFTKDKHSSRLEAHLTRDELRAKALHIPFPVEKIINLPVVDFNEMMSKEQFNEAQLALIRDIRRRGKNKVAAQNCRKRKLENIVELEQDLDHLKDEKEKLLKEKGENDKSLHLLKKQLSTLYLEVFSMLRDEDGKPYSPSEYSLQQTRDGNVFLVPKSKKPDVKKN

Binding Percentage [27]: 63.7%
B4: NRF2 isoform 1 (Q75R full-length), FLAG-tagged (protein)
chain: MMDLELPPPGLPSQQDMDLIDILWRQDIDLGVSREVFDFSQRRKEYELEKQKKLEKERQEQLQKEQEKAFFAQLRLDEETGEFLPIQPAQHIQSETSGSANYSQVAHIPKSDALYFDDCMQLLAQTFPFVDDNEVSSATFQSLVPDIPGHIESPVFIATNQAQSPETSVAQVAPVDLDGMQQDIEQVWEELLSIPELQCLNIENDKLVETTMVPSPEAKLTEVDNYHFYSSIPSMEKEVGNCSPHFLNAFEDSFSSILSTEDPNQLTVNSLNSDATVNTDFGDEFYSAFIAEPSISNSMPSPATLSHSLSELLNGPIDVSDLSLCKAFNQNHPESTAEFNDSDSGISLNTSPSVASPEHSVESSSYGDTLLGLSDSEVEELDSAPGSVKQNGPKTPVHSSGDMVQPLSPSQGQSTHVHDAQCENTPEKELPVSPGHRKTPFTKDKHSSRLEAHLTRDELRAKALHIPFPVEKIINLPVVDFNEMMSKEQFNEAQLALIRDIRRRGKNKVAAQNCRKRKLENIVELEQDLDHLKDEKEKLLKEKGENDKSLHLLKKQLSTLYLEVFSMLRDEDGKPYSPSEYSLQQTRDGNVFLVPKSKKPDVKKN

Reference: US20250352667A1
